Results on two substances are retold here after publication PMC3420232.

For assay [1], the target named is TNFR1-TRAILR2-Fas chimeric receptor (TM2) (human) (UniProt P19438). Briefly: radioligand binding; equilibrium (saturation) binding on cells: 2x10^5 murine fibroblasts expressing the receptor in PFA (PBS, 2% FCS, 0.002% sodium azide), 125I-TNF 0.25-12.5 ng/ml, 2 h on ice; non-specific binding with 200-fold excess of unlabeled protein; cells spun through phthalate oil; one site binding hyperbola; 51 kDa used for TNF; apparent.

In assay [2] the target is TNFR1-TRAILR1-Fas chimeric receptor (TM1) (human) (UniProt P19438). The description is as above.
Assay [3] has as its target TRAILR1-Fas chimeric receptor (human) (UniProt O00220). Briefly: radioligand binding; competition on cells: 4x10^5 murine fibroblasts expressing the (chimeric) TRAIL receptor in PFA (PBS, 2% FCS, 0.002% sodium azide), 83 ng/ml 125I-TRAIL with or without unlabeled recombinant human TRAIL (83-5300 ng/ml), 4 hours on ice; cells spun through phthalate oil; 68 kDa used for TRAIL.

Assay [4] has as its target TRAILR2-Fas chimeric receptor (human) (UniProt O14763). The description is as above.

By IC50 is commonly meant the concentration needed to halve the response being measured.

Take “125I-labeled recombinant human TNF (from UniProt P01375 77-233) (ligand)”: the Kd amounted to 71 nM in assay [1] and 225 nM in assay [2].
As for “Flag-tagged recombinant human TRAIL (sTRAIL), unlabeled (from UniProt P50591 95-281) (ligand)”, the IC50 in assay [3] stood at 16.8 nM; in assay [4] it was 5.5 nM.
